B1: near full length GST-cdc25B (31-566) fusion protein (Homo sapiens) (protein)
chain: GLLLGSHGLLGSPVRAAASSPVTTLTQTMHDLAGLGSRSRLTHLSLSRRASESSLSSESSESSDAGLCMDSPSPMDPHMAEQTFEQAIQAASRIIRNEQFAIRRFQSMPVRLLGHSPVLRNITNSQAPDGRRKSEAGSGAASSSGEDKENDGFVFKMPWKPTHPSSTHALAEWASRREAFAQRPSSAPDLMCLSPDRKMEVEELSPLALGRFSLTPAEGDTEEDDGFVDILESDLKDDDAVPPGMESLISAPLVKTLEKEEEKDLVMYSKCQRLFRSPSMPCSVIRPILKRLERPQDRDTPVQNKRRRSVTPPEEQQEAEEPKARVLRSKSLCHDEIENLLDSDHRELIGDYSKAFLLQTVDGKHQDLKYISPETMVALLTGKFSNIVDKFVIVDCRYPYEYEGGHIKTAVNLPLERDAESFLLKSPIAPCSLDKRVILIFHCEFSSERGPRMCRFIRERDRAVNDYPSLYYPEMYILKGGYKEFFPQHPNFCEPQDYRPMNHEAFKDELKTFRLKTRSWAGERSRRELCSRLQDQ
B2: human cdc25B (356-556) minimal catalytic domain, Val356-Arg556, GST-free, Form II, SEQ ID NO: 9 (Homo sapiens) (protein)
chain: VLRSKSLCHDEIENLLDSDHRELIGDYSKAFLLQTVDGKHQDLKYISPETMVALLTGKFSNIVDKFVIVDCRYPYEYEGGHIKTAVNLPLERDAESFLLKSPIAPCSLDKRVILIFHCEFSSERGPRMCRFIRERDRAVNDYPSLYYPEMYILKGGYKEFFPQHPNFCEPQDYRPMNHEAFKDELKTFRLKTRSWAGERSR
B3: human cdc25B Mutein3, cdc25B (356-566) with Arg556Lys/Arg557Lys, SEQ ID NO: 23 (Homo sapiens; R570K/R571K) (protein)
chain: VLRSKSLCHDEIENLLDSDHRELIGDYSKAFLLQTVDGKHQDLKYISPETMVALLTGKFSNIVDKFVIVDCRYPYEYEGGHIKTAVNLPLERDAESFLLKSPIAPCSLDKRVILIFHCEFSSERGPRMCRFIRERDRAVNDYPSLYYPEMYILKGGYKEFFPQHPNFCEPQDYRPMNHEAFKDELKTFRLKTRSWAGERSKKELCSRLQDQ
B4: human cdc25B (364-529) VHR-like catalytic domain, GST-free, GIQ-cdc25B (364-529), SEQ ID NO: 24 (Homo sapiens) (protein)
chain: HDEIENLLDSDHRELIGDYSKAFLLQTVDGKHQDLKYISPETMVALLTGKFSNIVDKFVIVDCRYPYEYEGGHIKTAVNLPLERDAESFLLKSPIAPCSLDKRVILIFHCEFSSERGPRMCRFIRERDRAVNDYPSLYYPEMYILKGGYKEFFPQHPNFCEPQDYR

How the values were obtained:
[1] = biological target: GST-cdc25B (residues 355-566) fusion protein (Homo sapiens, UniProt P30305); settings: PNPP as substrate, 37° C.; cited from earlier work
[2] = substrate: O=[N+]([O-])c1ccc(OP(=O)(O)O)cc1; test: purified protein, by the assay type; settings: other: PNPP as substrate, 25° C., pH 8.0

Molecule | Km [1] | Km [2] | Vmax [2]
O=[N+]([O-])c1ccc(OP(=O)(O)O)cc1 [PNPP, p-nitrophenyl phosphate] | 16.6 mM | – | –
B1 | – | 12.0 mM | –
B2 | – | 2.0 mM | –
B3 | – | 2.0 mM | –
B4 | – | 28 mM | 250 nmol/min/mg

From US6074851A, “Catalytic macro molecules having cdc25B like activity” (Pharmacia & UpJohn Company, priority 1997, dated 2000)
